The test system of one data set is Huh-7 cells. The format is binding, human. To be noted: 2 h. As to the method: The binding affinity of HYNIC-SP94 was assessed via a competitive displacement assay with ^99mTc tricine-EDDA/HYNIC-SP94[35]. Briefly, Huh-7 cells (1 × 10^6) and ^99mTc tricine-EDDA/HYNIC-SP94 (370 kBq) were added to each test tube in the presence of increasing concentrations of the SP94 peptide (from 0.001 nM to 10000 nM) and incubated for 2 h at 37 °C. To remove unbound ^99mTc tricine-EDDA/HYNIC-SP94, the cells were washed three times with cold PBS (1×, pH 7.2) and then centrifuged (600 rpm, 5 min). Radioactivity was determined using a γ-counter. The IC50 value was calculated by fitting experimental data with nonlinear regression using GraphPad Prism (GraphPad Software, San Diego, CA, USA).

Data set [1] can be described thus: In vivo stability (RP-HPLC of plasma). More on the design: species or system balb/c mice. To be noted: within 60 min after tail vein injection (~30 MBq/mouse). As to the method: The in vivo stability of ^99mTc tricine-EDDA/HYNIC-SP94 was evaluated in balb/c mice. ^99mTc tricine-EDDA/HYNIC-SP94 (~30 MBq/mouse) in 0.1 mL of saline was injected via the tail vein. Blood was then taken from the heart 10, 30, 60, 120 and 240 min after injection under anesthesia. Blood was collected in a heparin tube and immediately centrifuged (5000 rpm, 5 min) to obtain plasma. A total of 400 μL methanol/trichloromethane (V/V: 4/1) was added to 400 μL of plasma, fully mixed and centrifuged (5000 rpm, 5 min). RP-HPLC analysis was performed with 20 μL supernatant loading filtered by a 0.22 μm filter. The RP-HPLC was equipped with a Zorbax Eclipse XDB-C18 column (4.6 × 150 mm) and the following gradients were used at a flow rate of 1 mL/min: 98% solvent A (0.1% trifluoroacetic in 100% water) and 2% solvent B (0.09% trifluoroacetic in 80% ACN and 20% water): 0~5 min; 2% solvent A and 98% solvent B: 5~10 min; 98% solvent A and 2% solvent B: 10~15 min.

Data set [2] is described as follows: In vitro stability of ^99mTc-labeled complexes (radio-TLC). The format is in vitro ADME. Conditions: PBS, normal saline and FBS, 37 °C, 1-12 h. As to the method:
The in vitro stability of the radiolabeled peptide was tested by incubating it in PBS, saline and FBS for 1, 2, 4, 6 and 12 h at 37 °C. After incubation, ^99mTc-labeled complexes were assessed by radio-TLC. Results were plotted as the RCP (%) at different time points.

The subject of another data set is Huh-7 tumor-bearing mice. The data set can be described thus: Biodistribution study. It is filed as in vivo, balb/c nude mice. To be noted: mean ± SD; for Tumor uptake: Huh-7 tumor; for Tumor/muscle: ratio. The source says:
Four- to six-week-old male athymic nude mice were used for preparation of the xenograft tumor models. Huh-7 and Hela cells were subcutaneously injected at a concentration of 5 × 10^6 cells/mouse in the right front flank of the mice. The mice were ready for biodistribution and microSPECT/CT imaging study when the tumors reached an average diameter of 0.8~1.0 cm (3~4 weeks after inoculation). Animal care and experimental procedures were accordant with the Helsinki Declaration and were approved by the institutional animal care committee.
Fifteen Huh-7 tumor-bearing mice were randomly divided into three groups. ^99mTc tricine-EDDA/HYNIC-SP94 (~0.74 MBq/mouse) in 0.1 mL of saline was injected via tail vein. At 0.5 and 1.5 h p.i., the mice were anesthetized via 2% isoflurane and sacrificed by cervical dislocation. Immediately after sacrifice, the blood, tumors and organs of interest (heart, lungs, liver, spleen, stomach, small intestine, large intestine, kidneys, muscle and thyroid) were harvested, washed with saline and weighed. Radioactivity was determined using a γ-counter. To determine the specific uptake of ^99mTc tricine-EDDA/HYNIC-SP94, 5 mice received an intravenous injection of 200 μg of unlabeled HYNIC-SP94 as a blocking agent 30 min prior to injection of ^99mTc tricine-EDDA/HYNIC-SP94 (~0.74 MBq/mouse). The mice were sacrificed 30 min p.i. and the experiments performed as described above. Absorption of organs and tissues was calculated as a percentage of the injected dose per gram of tissue mass (%ID/g).

A short description of data set [3]: In vitro stability of ^188Re-HYNIC-SP94 (radio-TLC). It is filed as in vitro ADME. Conditions: FBS, room temperature, 48 h, mean ± SD. How it is done: The in vitro stability of ^188Re-HYNIC-SP94 was evaluated by incubating ^188Re-HYNIC-SP94 in normal saline and FBS at room temperature. RCP was analyzed by radio-TLC at 1, 4, 8, 18, 26 and 48 h after incubation to determine the stability.

Setting [4] is: 0.5 h p.i., blocking: 200 μg unlabeled HYNIC-SP94 i.v. 30 min prior.

Three compounds from article PMC5030711, “Investigation of SP94 Peptide as a Specific Probe for Hepatocellular Carcinoma Imaging and Therapy” (Scientific Reports, 2016) can be followed below.

Where “and” joins values, the source holds several entries; their conditions need not be identical. Equal entries are not always repeated. Entries after “also recorded” stand apart in the source; their conditions may differ. Residues, ends and D or L forms follow the SMILES beside them. *: point of attachment. HYNIC = NNc1ccc(C(=O)*)cn1

For orientation: IC50 means the concentration that gives 50% inhibition. A high value points to lower potency. The compound `CC[C@H](C)[C@H](NC(=O)[C@H](CO)NC(=O)[C@H](Cc1ccccc1)NC(=O)[C@H](CO)NC(=O)c1ccc(NN)nc1)C(=O)N[C@H](C(=O)N[C@@H](Cc1c[nH]cn1)C(=O)N[C@H](C(=O)N1CCC[C@H]1C(=O)N[C@H](C(=O)N[C@@H](CC(C)C)C(=O)N1CCC[C@H]1C(=O)N[C@@H](CC(C)C)C(=O)O)[C@@H](C)CC)[C@@H](C)O)[C@@H](C)CC` [HYNIC-SP94, 6-hydrazinonicotinic acid-SP94] ({HYNIC}-SFSIIHTPILPL-OH) returned an IC50 with Huh-7 cells of 4.49 ± 0.2 nM.
On to `CC[C@H](C)[C@H](NC(=O)[C@H](CO)NC(=O)[C@H](Cc1ccccc1)NC(=O)[C@H](CO)NC(=O)c1ccc(NN)nc1)C(=O)N[C@H](C(=O)N[C@@H](Cc1c[nH]cn1)C(=O)N[C@H](C(=O)N1CCC[C@H]1C(=O)N[C@H](C(=O)N[C@@H](CC(C)C)C(=O)N1CCC[C@H]1C(=O)N[C@@H](CC(C)C)C(=O)O)[C@@H](C)CC)[C@@H](C)O)[C@@H](C)CC` [^99mTc tricine-EDDA/HYNIC-SP94, metal not drawn] ({HYNIC}-SFSIIHTPILPL-OH), for which, in data set [1], the “radiochemical purity (RCP) maintained in vivo” value was “about 66%”. The “in vitro stability (RCP)” value in data set [2] is given as “highly stable; also recorded: slightly better”. Besides, in the data set on Huh-7 tumor-bearing mice (0.5 h p.i., blocking), the Blood uptake amounted to 0.99 ± 0.12 %ID/g, the Kidney uptake is given as 7.58±2.25 %ID/g, the Large intestine uptake turned out to be 0.54 ± 0.08 %ID/g and the Liver uptake was 2.07 ± 0.20 %ID/g. In the data set on Huh-7 tumor-bearing mice (0.5 h p.i., blocking), this compound had a Lung uptake of 2.06 ± 0.18 %ID/g, a Muscle uptake of 0.23 ± 0.05 %ID/g, a Small intestine uptake of 0.78 ± 0.11 %ID/g and a Spleen uptake of 1.05 ± 0.27 %ID/g. Moreover, in the data set with Huh-7 tumor-bearing mice (0.5 h p.i., blocking), the Stomach uptake turned out to be 0.84 ± 0.06 %ID/g, the Thyroid uptake amounted to 0.52 ± 0.04 %ID/g and the Tumor/muscle was determined as 1.56 ± 0.06. In addition, in the data set on Huh-7 tumor-bearing mice (0.5 h p.i., non-blocking), the Blood uptake was found to be 1.17 ± 0.37 %ID/g, the Tumor uptake was determined as 1.02 ± 0.26 %ID/g, the Kidney uptake was determined as 7.40 ± 2.66 %ID/g and the Large intestine uptake is listed as 0.70 ± 0.09 %ID/g. Moreover, in the data set with Huh-7 tumor-bearing mice (0.5 h p.i., non-blocking), the Liver uptake came to 2.39 ± 1.55 %ID/g, the Lung uptake turned out to be 2.10 ± 0.43 %ID/g, the Muscle uptake was determined as 0.30 ± 0.05 %ID/g and the Small intestine uptake was 0.97 ± 0.22 %ID/g. Moreover, in the data set with Huh-7 tumor-bearing mice (0.5 h p.i., non-blocking), the Spleen uptake amounted to 0.84 ± 0.30 %ID/g, the Stomach uptake was determined as 0.85 ± 0.18 %ID/g, the Thyroid uptake was determined as 0.47 ± 0.09 %ID/g and the Tumor/muscle is listed as 3.96 ± 0.06. For the same compound, in the data set with Huh-7 tumor-bearing mice (1.5 h p.i., non-blocking), the Blood uptake was found to be 0.49 ± 0.08 %ID/g, the Heart uptake came to 0.34 ± 0.03 %ID/g, the Tumor uptake worked out at 0.74 ± 0.07 %ID/g and the Kidney uptake came out at 6.14 ± 0.10 %ID/g. In the data set with Huh-7 tumor-bearing mice (1.5 h p.i., non-blocking), this compound showed a Large intestine uptake of 0.48 ± 0.02 %ID/g, a Liver uptake of 1.98 ± 0.15 %ID/g, a Lung uptake of 1.45 ± 0.04 %ID/g and a Muscle uptake of 0.16 ± 0.02 %ID/g. In the data set with Huh-7 tumor-bearing mice (1.5 h p.i., non-blocking), this compound displayed a Small intestine uptake of 0.73 ± 0.07 %ID/g, a Spleen uptake of 0.67 ± 0.04 %ID/g, a Stomach uptake of 0.68 ± 0.09 %ID/g and a Thyroid uptake of 0.27 ± 0.03 %ID/g. For the same compound, the Tumor/muscle with Huh-7 tumor-bearing mice (1.5 h p.i., non-blocking) is 4.55 ± 0.10. Further, in the data set on Huh-7 tumor-bearing mice (setting [4]), the Heart uptake is 0.58 ± 0.03 %ID/g and the Tumor uptake worked out at 0.34 ± 0.09 %ID/g. Also, the Heart uptake with Huh-7 tumor-bearing mice (0.5 h p.i., non-blocking, i.v. ~0.74 MBq/mouse) is on record as 0.54 ± 0.13 %ID/g.
On to `CC[C@H](C)[C@H](NC(=O)[C@H](CO)NC(=O)[C@H](Cc1ccccc1)NC(=O)[C@H](CO)NC(=O)c1ccc(NN)nc1)C(=O)N[C@H](C(=O)N[C@@H](Cc1c[nH]cn1)C(=O)N[C@H](C(=O)N1CCC[C@H]1C(=O)N[C@H](C(=O)N[C@@H](CC(C)C)C(=O)N1CCC[C@H]1C(=O)N[C@@H](CC(C)C)C(=O)O)[C@@H](C)CC)[C@@H](C)O)[C@@H](C)CC` [^188Re-HYNIC-SP94, metal not drawn] ({HYNIC}-SFSIIHTPILPL-OH), for which the RCP after incubation in data set [3] is 91.67 ± 2.36% and > 90%.
